Data reported in PMC4018787 (The Journal of Cell Biology, 2014).

Tests used:
[1] = target: T1, recombinant fibrinogen-like (FBG) domain of tenascin-X (TNX), produced in mammalian cells (UniProt O18977 3911-4135); test: ELISA
T1 sequence (looked up): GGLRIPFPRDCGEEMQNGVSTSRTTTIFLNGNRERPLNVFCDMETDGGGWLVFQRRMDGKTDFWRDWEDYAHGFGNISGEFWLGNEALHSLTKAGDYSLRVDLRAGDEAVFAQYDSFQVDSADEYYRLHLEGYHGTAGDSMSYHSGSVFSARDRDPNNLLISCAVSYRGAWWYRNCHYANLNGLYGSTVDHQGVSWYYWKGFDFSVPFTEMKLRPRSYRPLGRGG

[2] = target: recombinant full-length tenascin-X (TNX) (UniProt O18977 23-4135); test: ELISA

binding result [1]: binds | binding result [2]: binds
B1: inserted (I) domain of the α11 integrin chain fused to GST (domain or fragment, human, UniProt Q9UKX5-1 160-358, looked up)
chain: QTYMDIVIVLDGSNSIYPWVEVQHFLINILKKFYIGPGQIQVGVVQYGEDVVHEFHLNDYRSVKDVVEAASHIEQRGGTETRTAFGIEFARSEAFQKGGRKGAKKVMIVITDGESHDSPDLEKVIQQSERDNVTRYAVAVLGYYNRRGINPETFLNEIKYIASDPDDKHFFNVTDEAALKDIVDALGDRIFSLEGTNKN
